From patent US20260167959A1, “APTAZYME-BASED REGULATABLE GENE EXPRESSION SYSTEMS” (REJUVENATE BIO INC, priority 2022, published 2026)

B1: RA065 (nucleic acid)
DNA: GCTGTCACCGGAATACCAGCATCGTCTTGATGCCCTTGGAAGTCCGGTCTGATGAGTCCCAGAAGGACGAAACAGC
modifications: expressed or natural sequence
B2: RA061 (nucleic acid)
DNA: GCGCGTCCTGGATTCGCGGAAACGCGTACATCCAGCTGACGAGTCCCAAATAGGACGAAACGCGCGGAATACCAGCATCGTCTTGATGCCCTTGGAAGTCC
modifications: expressed or natural sequence
B3: RA047 (nucleic acid)
DNA: GCGCGTCCTGGATTCGCGGAAACGCGTACATCCAGCTGACGAGTCCCAGGAATACCAGCATCGTCTTGATGCCCTTGGAAGTCCAATAGGACGAAACGCGC
modifications: expressed or natural sequence
B4: RA063 (nucleic acid)
DNA: GCGCGTCCTGGATTCAGTGATACCAGCATCGTCTTGATGCCCTTGGCAGCACTGCGGAAACGCGTACATCCAGCTGACGAGTCCCAAATAGGACGAAACGCGC
modifications: expressed or natural sequence
B5: RA056 (nucleic acid)
DNA: GCGCGTCCTGGATTCGCGGAAACGCGTACATCCAGCTGACGAGTCCCGAGAATACCAGCATCGTCTTGATGCCCTTGGAAGTCTCAAATAGGACGAAACGCGC
modifications: expressed or natural sequence
B6: RA062 (nucleic acid)
DNA: GCGCGTCCTGGATTCGCGGAAACGCCCGGAATACCAGCATCGTCTTGATGCCCTTGGAAGTCCGGGTACATCCAGCTGACGAGTCCCAAATAGGACGAAACGCGC
modifications: expressed or natural sequence
B7: RA051 (nucleic acid)
DNA: GCGCGTCCTGGATTCGCGGAAACGCGTACATCCAGCTGACGAGTCCCAAATAGGACGAAACCGAGAATACCAGCATCGTCTTGATGCCCTTGGAAGTCTCGGCGC
modifications: expressed or natural sequence
B8: RA052 (nucleic acid)
DNA: GCGCGTCCTGGATTCGCGGAAACGCGTACATCCAGCTGACGAGAGTGATACCAGCATCGTCTTGATGCCCTTGGCAGCACTTCCCAAATAGGACGAAACGCGC
modifications: expressed or natural sequence
B9: RA048 (nucleic acid)
DNA: GCGCGTCCTGGATTCGCGGAAACGCGTACATCCAGCTGACGCGAGAATACCAGCATCGTCTTGATGCCCTTGGAAGTCTCGAGTCCCAAATAGGACGAAACGCGC
modifications: expressed or natural sequence
B10: RA004: exemplary aptazyme of the T3H48 aptazyme variant library (nucleic acid)
DNA: GCGCGTCCTGGATTCGCGGAAACGCGTACATCCAGCTGACGAGTCCCAAATAGGCCGGAATACCAGCATCGTCTTGATGCCCTTGGAAGTCCGGACGAAACGCGC
modifications: expressed or natural sequence
notes: exemplary aptazyme of the T3H48 aptazyme variant library
B11: RA060 (nucleic acid)
DNA: GCGCGTCCTGGATTCGCGGAAACGCGTACATCCAGCTGACGAGTCCCAAATAGGACGAAACGCGGGAATACCAGCATCGTCTTGATGCCCTTGGAAGTCCC
modifications: expressed or natural sequence
B12: RA005 (nucleic acid)
DNA: GCGCGTCCTGGATTCGCGGAAACCGGAATACCAGCATCGTCTTGATGCCCTTGGAAGTCCGGCGCGTACATCCAGCTGACGAGTCCCAAATAGGACGAAACGCGC
modifications: expressed or natural sequence
B13: RA050 (nucleic acid)
DNA: GCGCGTCCTGGATTCGCGGAAACGCGTACATCCAGCTGACGAGAATACCAGCATCGTCTTGATGCCCTTGGAAGTCTCGCGAGTCCCAAATAGGACGAAACGCGC
modifications: expressed or natural sequence
B14: RA053 (nucleic acid)
DNA: GCGCGTCCTGGATTCGCGGAAACGCGTACATCCAGAGTGATACCAGCATCGTCTTGATGCCCTTGGCAGCACTCTGACGAGTCCCAAATAGGACGAAACGCGC
modifications: expressed or natural sequence
B15: RA055 (nucleic acid)
DNA: GCGCGTCCTGGATTCGCGGCGAGAATACCAGCATCGTCTTGATGCCCTTGGAAGTCTCGAAACGCGTACATCCAGCTGACGAGTCCCAAATAGGACGAAACGCGC
modifications: expressed or natural sequence
B16: RA054 (nucleic acid)
DNA: GAGTGATACCAGCATCGTCTTGATGCCCTTGGCAGCACTCGCGTCCTGGATTCGCGGAAACGCGTACATCCAGCTGACGAGTCCCAAATAGGACGAAACGCGC
modifications: expressed or natural sequence
B17: RA058 (nucleic acid)
DNA: GCGCGTCCTGGATTCGCGGAAACGCGTACATCCAGAGAATACCAGCATCGTCTTGATGCCCTTGGAAGTCTCGCTGACGAGTCCCAAATAGGACGAAACGCGC
modifications: expressed or natural sequence
B18: RA064 (nucleic acid)
DNA: GCGCGTCCTGGATTCGCGGAAACGCGTACAGAATACCAGCATCGTCTTGATGCCCTTGGAAGTCTATCCAGCTGACGAGTCCCAAATAGGACGAAACGCGC
modifications: expressed or natural sequence
B19: RA059 (nucleic acid)
DNA: GCGCGTCCTGGATTCCCGGAATACCAGCATCGTCTTGATGCCCTTGGAAGTCCGGGCGGAAACGCGTACATCCAGCTGACGAGTCCCAAATAGGACGAAACGCGC
modifications: expressed or natural sequence
B20: RA049 (nucleic acid)
DNA: GCGCGTCCTGGATTCGCGGAAACGCGTACATAGAATACCAGCATCGTCTTGATGCCCTTGGAAGTCTCCAGCTGACGAGTCCCAAATAGGACGAAACGCGC
modifications: expressed or natural sequence
B21: RA057 (nucleic acid)
DNA: GCGCGTCCTGGATTCGCGGAAACGCGTACATCCAGCTGACGAGTCCCAAATAGGACAGAATACCAGCATCGTCTTGATGCCCTTGGAAGTCTGAAACGCGC
modifications: expressed or natural sequence

System: Renilla luciferase RNA
Experiment: Barcoded aptazyme variant library screen: un-cleaved Renilla luciferase RNA by barcode read counts, HEK293-T cells
Format: cell-based
Details: un-cleaved Renilla luciferase RNA, HEK293-T cells cultured with 1 mM theophylline (ON) over without theophylline (OFF); barcode read counts, triplicate
Method in brief: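 Barcode sequencing of cDNA versus DNA, normalized per aptazyme, gave the un-cleaved Renilla luciferase RNA fraction and fold-change with versus without theophylline (triplicates). Library: T3H48 ribozyme with one of seven theophylline aptamer variants inserted at each position, placed in the Renilla 3′ UTR of a dual-luciferase vector.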

Fold change in RNA expression between the ON state and the OFF state, 5.2 fold:
B12

Fold change in RNA expression between the ON state and the OFF state, 2.0 fold:
B3
B5
B7
B8
B9
B13
B14
B15
B16
B17
B20
B21

Fold change in RNA expression between the ON state and the OFF state, 1.9 fold:
B1
B2
B4
B6
B11
B18
B19

Fold change in RNA expression between the ON state and the OFF state, 5.3 fold:
B10
